Tested on: LTRP5-ADD-ZIM3 (dCasX491 fused to DNMT3A ADD/CD, DNMT3L, ZIM3-KRAB) (synthetic construct)
Assay: cell_activity
Conditions: HEK293T day 8; non-targeting control

Sequence of LTRP5-ADD-ZIM3 (dCasX491 fused to DNMT3A ADD/CD, DNMT3L, ZIM3-KRAB) (synthetic construct) (chain, as listed by the source): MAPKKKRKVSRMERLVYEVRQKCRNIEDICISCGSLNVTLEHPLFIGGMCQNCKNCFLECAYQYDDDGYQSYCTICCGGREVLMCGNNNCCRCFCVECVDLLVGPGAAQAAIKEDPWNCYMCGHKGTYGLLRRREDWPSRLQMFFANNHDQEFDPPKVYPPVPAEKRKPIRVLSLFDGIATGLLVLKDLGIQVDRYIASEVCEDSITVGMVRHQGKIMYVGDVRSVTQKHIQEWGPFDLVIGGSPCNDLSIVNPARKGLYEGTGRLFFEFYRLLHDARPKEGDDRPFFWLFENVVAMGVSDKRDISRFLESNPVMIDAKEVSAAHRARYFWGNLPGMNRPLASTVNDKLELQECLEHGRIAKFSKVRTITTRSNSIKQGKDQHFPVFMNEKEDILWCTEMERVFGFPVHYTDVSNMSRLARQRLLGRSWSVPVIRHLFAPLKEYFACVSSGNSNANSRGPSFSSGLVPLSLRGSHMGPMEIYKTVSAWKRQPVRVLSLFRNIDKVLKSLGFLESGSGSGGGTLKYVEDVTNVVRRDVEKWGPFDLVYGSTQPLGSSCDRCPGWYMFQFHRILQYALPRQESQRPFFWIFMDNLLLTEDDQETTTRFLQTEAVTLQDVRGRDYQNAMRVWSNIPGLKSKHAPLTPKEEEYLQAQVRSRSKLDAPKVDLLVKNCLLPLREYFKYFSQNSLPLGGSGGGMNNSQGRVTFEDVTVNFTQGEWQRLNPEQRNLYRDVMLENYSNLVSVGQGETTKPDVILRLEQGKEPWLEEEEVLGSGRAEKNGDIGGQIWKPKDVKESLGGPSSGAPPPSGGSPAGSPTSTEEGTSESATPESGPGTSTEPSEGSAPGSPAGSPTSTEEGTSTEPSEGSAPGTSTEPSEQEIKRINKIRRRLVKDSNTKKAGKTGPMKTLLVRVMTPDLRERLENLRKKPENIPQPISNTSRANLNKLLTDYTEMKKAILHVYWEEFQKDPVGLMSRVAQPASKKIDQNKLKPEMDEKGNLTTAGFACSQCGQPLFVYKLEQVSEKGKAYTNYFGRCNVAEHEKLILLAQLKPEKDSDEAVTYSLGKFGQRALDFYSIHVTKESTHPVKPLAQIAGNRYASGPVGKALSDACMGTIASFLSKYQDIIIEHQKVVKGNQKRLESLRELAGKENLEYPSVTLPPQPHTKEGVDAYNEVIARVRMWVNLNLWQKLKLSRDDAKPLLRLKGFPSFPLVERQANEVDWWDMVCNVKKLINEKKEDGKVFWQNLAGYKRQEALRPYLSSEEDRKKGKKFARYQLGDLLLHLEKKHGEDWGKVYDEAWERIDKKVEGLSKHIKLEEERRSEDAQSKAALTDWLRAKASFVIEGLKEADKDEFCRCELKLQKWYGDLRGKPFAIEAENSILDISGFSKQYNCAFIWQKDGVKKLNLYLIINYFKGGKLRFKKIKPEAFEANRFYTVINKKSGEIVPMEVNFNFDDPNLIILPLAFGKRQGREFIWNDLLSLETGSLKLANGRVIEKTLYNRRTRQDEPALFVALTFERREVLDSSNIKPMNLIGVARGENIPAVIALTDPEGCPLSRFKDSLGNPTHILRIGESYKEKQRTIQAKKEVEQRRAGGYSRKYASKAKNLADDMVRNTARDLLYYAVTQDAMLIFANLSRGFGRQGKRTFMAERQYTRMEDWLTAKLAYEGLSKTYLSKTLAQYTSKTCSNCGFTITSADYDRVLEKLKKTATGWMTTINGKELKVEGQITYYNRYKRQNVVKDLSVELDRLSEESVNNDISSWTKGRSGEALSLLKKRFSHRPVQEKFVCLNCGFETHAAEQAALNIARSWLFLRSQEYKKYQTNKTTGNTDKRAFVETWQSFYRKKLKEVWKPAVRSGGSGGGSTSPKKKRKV

non-targeting spacer gRNA ; human B2M locus
activity (% HLA-negative cells): 8.44

From patent US20260240958
